Assay results as given in PMC2715225 (Nucleic Acids Research, 2009).

Target: T1, His6-tagged human PSF (human, UniProt P23246 1-707)
T1 sequence (looked up): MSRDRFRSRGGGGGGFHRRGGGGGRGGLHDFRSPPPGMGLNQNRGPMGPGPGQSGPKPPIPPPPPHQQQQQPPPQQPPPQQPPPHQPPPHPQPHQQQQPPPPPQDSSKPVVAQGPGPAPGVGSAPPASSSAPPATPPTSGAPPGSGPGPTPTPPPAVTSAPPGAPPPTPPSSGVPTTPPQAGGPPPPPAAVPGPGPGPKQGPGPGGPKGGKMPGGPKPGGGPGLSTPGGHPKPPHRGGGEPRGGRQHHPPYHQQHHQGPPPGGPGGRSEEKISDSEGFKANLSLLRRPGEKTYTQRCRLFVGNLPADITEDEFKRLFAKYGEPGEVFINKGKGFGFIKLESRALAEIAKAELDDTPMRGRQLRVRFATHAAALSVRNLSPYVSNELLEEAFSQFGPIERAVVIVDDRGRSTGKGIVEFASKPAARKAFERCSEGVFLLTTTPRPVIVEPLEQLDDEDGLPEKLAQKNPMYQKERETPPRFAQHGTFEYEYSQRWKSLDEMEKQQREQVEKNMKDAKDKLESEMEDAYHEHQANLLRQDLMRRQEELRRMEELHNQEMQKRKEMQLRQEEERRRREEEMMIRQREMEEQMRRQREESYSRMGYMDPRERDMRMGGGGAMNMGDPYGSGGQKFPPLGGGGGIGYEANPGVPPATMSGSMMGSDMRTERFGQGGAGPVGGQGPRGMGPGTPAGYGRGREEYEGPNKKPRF
Test: pull-down

stoichiometry N: ~1 PSF:RAD51
B1: Human RAD51 without His6 tag (natural protein, UniProt Q06609 1-339, looked up)
chain: MAMQMQLEANADTSVEEESFGPQPISRLEQCGINANDVKKLEEAGFHTVEAVAYAPKKELINIKGISEAKADKILAEAAKLVPMGFTTATEFHQRRSEIIQITTGSKELDKLLQGGIETGSITEMFGEFRTGKTQICHTLAVTCQLPIDRGGGEGKAMYIDTEGTFRPERLLAVAERYGLSGSDVLDNVAYARAFNTDHQTQLLYQASAMMVESRYALLIVDSATALYRTDYSGRGELSARQMHLARFLRMLLRLADEFGVAVVITNQVVAQVDGAAMFAADPKKPIGGNIIAHASTTRLYLRKGRGETRICKIYDSPCLPEAEAMFAINADGVGDAKD
